Source: US20060275822

Molecular target: W-SCAT protein (Venus - caspase 3 substrate site - Venus, expressed from pRSETB/W-SCAT in Escherichia coli)

B1: active caspase 3 (CPP32, MBL) (protein)
chain: SGISLDNSYKMDYPEMGLCIIINNKNFHKSTGMTSRSGTDVDAANLRETFRNLKYEVRNKNDLTREEIVELMRDVSKEDHSKRSSFVCVLLSHGEEGIIFGTNGPVDLKKITNFFRGDRCRSLTGKPKLFIIQACRGTELDCGIETDSGVDDDMACHKIPVEADFLYAYSTAPGYYSWRNSKDGSWFIQSLCAMLKQYADKLEFMHILTRVNRKVATEFESFSFDATFHAKKQIPCIVSMLTKELYFYH
Fluorescent anisotropy (mA) of W-SCAT after 2 hours at 37 C with 1 unit of active caspase 3, measured with Beacon (control without casp3: 225.8): 276 mA
